US9403908B2, “Method for altering hematopoietic progenitor cell adhesion, differentiation, and migration” (The Regents of the University of California, priority 2003, dated 2016)

B1: rsVCAM: recombinant soluble VCAM, a competitive inhibitor of integrin α4β1 function (protein)
chain: FKIETTPESRYLAQIGDSVSLTCSTTGCESPFFSWRTQIDSPLNGKVTNEGTTSTLTMNPVSFGNEHSYLCTATCESRKLEKGIQVEIYSFPKDPEIHLSGPLEAGKPITVKCSVADVYPFDRLEIDLLKGDHLMKSQEFLEDADRKSLETKSLEVTFTPVIEDIGKVLVCRAKLHIDEMDSVPTVRQAVKELQVYISPKNTVISVNPSTKLQEGGSVTMTCSSEGLPAPEIFWSKKLDNGNLQHLSGNATLTLIAMRMEDSGIYVCEGVNLIGKNRKEVELIVQEKPFTVEISPGPRIAAQIGDSVMLTCSVMGCESPSFSWRTQIDSPLSGKVRSEGTNSTLTLSPVSFENEHSYLCTVTCGHKKLEKGIQVELYSFPRDPEIEMSGGLVNGSSVTVSCKVPSVYPLDRLEIELLKGETILENIEFLEDTDMKSLENKSLEMTFIPTIEDTGKALVCQAKLHIDDMEFEPKQRQSTQTLYVNVAPRDTTVLVSPSSILEEGSSVNMTCLSQGFPAPKILWSRQLPNGELQPLSENATLTLISTKMEDSGVYLCEGINQAGRSRKEVELIIQVTPKDIKLTAFPSESVKEGDTVIISCTCGNVPETWIILKKKAETGDTVLKSIDGAYTIRKAQLKDAGVYECESKNKVGSQLRSLTLDVQGRENNKDYFSPE

How the values were obtained:
[1] = test system: bFGF or VEGF induced angiogenesis in Matrigel; test: Murine Matrigel angiogenesis assay (bFGF or VEGF); type: in vivo, mouse; conditions: peptide antagonist; 50 μM in bFGF matrigel, nude mice (FIG. 19G)
Method: (B, C) Adhesion of endothelial cells to plastic plates coated with 5 μg/ml CS-1 fibronectin, in the presence of medium, anti-α4β1 (HP1/2) or control antibodies (P1F6). (D) Cryosections from bFGF stimulated, saline or antibody-treated CAMs were immunostained to detect blood vessel expression of von Willebrand Factor. (E) Angiogenesis was initiated in FVB/N mice by corneal transplantation of polymerized pellets containing 400 ng/ml of VEGF. Animals (n=5) were treated on day 0 and day 3 with anti-α4β1 (PS/2) or control IgG (cIgG). Fifteen minutes prior to sacrifice on day 5, mice were injected intravenously with endothelial specific lectin, Bandeira simplifolia-FITC and tissues were cryopreserved. Angiogenic response to VEGF was quantified as the percent green fluorescent area visible under high power magnification (100×). […] Matrigel plugs were homogenized in RIPA buffer and fluorescence intensity determined.
[…] Microvessel density was quantified in 10 randomly selected 200× microscopic fields for each plug in each treatment group (n=8). […] Angiogenic response to VEGF was quantified as the percent green fluorescent area visible at 100× magnification. […] Tumor dimensions were determined every other day and tumor mass was determined after four weeks of treatment. […] Statistical significance was determined using Student's t-test.

[2] = test system: endothelial progenitor cells (EPCs); test: Adhesion of DiI-labeled EPCs to endothelial (HUVEC) monolayers; type: cell-based, human; conditions: DiI-labeled EPCs on proliferating HUVEC monolayers; FIG. 17D
Method: (A-B) Adhesion of purified EPCs on plastic plates coated with (A) 5 μg/ml CS-1 fibronectin or (B) recombinant soluble VCAM in the presence of medium, anti-α4β1 (HP1/2) or control antibodies (P1F6). (C) Adhesion of DiI-labeled purified EPCs to HUVEC monolayers VCAM in the presence of medium, anti-α4β1 (HP1/2) or control antibodies (P1F6). Cells were quantified by counting adherent red fluorescent cells per 200× microscopic field. (D) Adhesion of DiI-labeled purified EPCs to HUVEC monolayers in the presence of medium, rsVCAM or control protein. Statistical significance was determined using Student's t-test.
To determine whether EPCs can attach to proliferating vascular endothelium that has been stimulated by angiogenic growth factors, we plated EPCs labeled with DiI-acetylated LDL onto proliferating endothelial monolayers. EPCs bound strongly to endothelium in a α4β1 dependent manner (FIG. 17C) and that rsVCAM blocked EPC attachment to endothelial monolayers (FIG. 17D). […] Thus, α4β1 mediates the attachment of EPCs to VCAM on vascular endothelium. […]

human CD34+ stem cells = test: CD34+ stem cell adhesion to HUVEC monolayers; type: cell-based; conditions: 60 minutes, 25 μg/ml HP2/1 or P1F6 (FIG. 34d-e)
Method: Adhesion assays were performed on plastic 48 well plates coated with 5 μg/ml of recombinant H120 CS-1 fibronectin (from Martin J. Humphries, University of Birmingham, UK) as described (Kim et al. (2000) Am. J. Pathol. 156, 1345-1362). Stem cells were incubated on coated plates for 30 minutes in the presence of 25 μg/ml anti-α4β1_(HP2/1) or anti-αvβ5 (P1F6, from Dr. David Cheresh, the Scripps Research Institute). CMTMR labeled stem cells were incubated in HEPES buffered serum free culture medium in the presence of 25 μg/ml HP2/1 or P1F6 on HUVEC monolayers for 60 minutes at 37° C. Unbound cells were removed by washing gently with PBS. Cells were fixed in 3.7% parafomaldeyde. Representative fields were photographed at 200× and the number of cells adhering per field was quantified in five representative fields per treatment condition.

| Molecule | neovascularization in Matrigel model [1] | EPC attachment to endothelial monolayers [2] | stem cell adhesion to endothelial cell (EC) monolayers (human CD34+ stem cells) |
| --- | --- | --- | --- |
| EILDV | blocked | – | – |
| B1 | – | blocked | blocked |
